Like-named read-outs stand apart in the source and are kept apart here.

The test deals with T1, Fyn-SH3 (Homo sapiens, UniProt P06241).
T1 construct: 82-143) was cloned into the pET-TEV; His-tag (TEV-cleavable, pET-TEV vector) (N, cleaved yes); made in house; host or cells: E. coli BL21(DE3)
As to the kind of experiment: Isothermal titration calorimetry (ITC), Fyn-SH3 titrated into Tau fragments. In kind it is binding. As to conditions: 20 mM potassium phosphate pH 6.8, 25 °C, error from data fitting. From the text:
Figure 3 ITC analysis of Fyn‐SH3 binding to Tau. ITC measurements of Fyn‐SH3 titrated into Tau fragments 151–372 (a), 151–243 (b), 151–372 Δ175–179 (c), 151–372 Δ215–219 (d), 151–372 Δ175–179 Δ215–219 (e). The upper and lower panels show the raw thermograms (DP, differential power), and the integrated heats corrected for the heat of dilution (ΔH), respectively. The blue line in the latter panels represents the fit curve. […]
Isothermal Titration Calorimetry (ITC)
For ITC measurements, purified Fyn-SH3 and Tau proteins were dialyzed overnight against 20 mM potassium phosphate buffer (pH 6.8). Concentrations of proteins were measured using a NanoDrop instrument (Thermo Fisher Scientific), by using molar extinction coefficients at 280 nm. Calorimetric titrations were carried out on a MicroCal PEAQ-ITC instrument (Malvern) at 25 °C. The sample cell contained 20 μM Tau protein and the injection syringe 0.6 mM or 1 mM solution of Fyn-SH3. Only for the Tau mutant 151-372 Δ175-179 Δ215-219, the experiment was conducted with 60 μM Tau protein in the cell and 1.2 mM SH3 in the syringe. Titrations were carried out with a preliminary 0.4 μl injection, followed by 2 μl injections with time intervals of 150 sec, with stirring rate of 500 rpm and reference power of 10 μcal/sec. A blank titration (ligand into buffer) was recorded in the same experimental conditions and the dilution heats were subtracted to the data.
Binding isotherms were analyzed with the MicroCal PEAQ-ITC analysis software, using the two-sets of sites or the one-set of sites fitting models. […]
On the technique in general: ITC needs no label: the signal is the heat of the interaction.

Setting [1] is: one-set of sites model, 20 μM Tau in cell, 0.6 mM or 1 mM SH3 in syringe, read-out: Kd.

T1 sequence (P06241 82-143): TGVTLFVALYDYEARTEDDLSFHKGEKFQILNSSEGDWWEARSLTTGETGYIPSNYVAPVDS

Take “Tau 151–243: recombinant Tau fragment 151-243 lacking the HSPR3 and the MBD”: the Kd under setting [1] is about 12 µM.
For the substance “Tau 151–372 Δ175‐179 Δ215‐219: Tau 151-372 double deletion mutant lacking the PxxP motifs in HSPR1 and HSPR2”, the Kd is 10 µM (two-sets of sites model, site I, 60 μM Tau in cell, 1.2 mM SH3 in syringe, listed as Δ175–179 Δ215–219, read-out: KdI); 10.3 ± 2.2 µM (two-sets of sites model, site I, 60 μM Tau in cell, 1.2 mM SH3 in syringe, read-out: KdI); 347 ± 79 µM (two-sets of sites model, site II, 60 μM Tau in cell, 1.2 mM SH3 in syringe, read-out: KdII).
As to “Tau 151–372 Δ175‐179: Tau 151-372 deletion mutant lacking the PxxP motifs in HSPR1”, the Kd worked out at 12 µM (one-set of sites model, 20 μM Tau in cell, 0.6 mM or 1 mM SH3 in syringe, listed as Δ175–179, read-out: Kd) and 12.2 ± 5.4 µM under setting [1].
As to “Tau 151–372 Δ215‐219: Tau 151-372 deletion mutant lacking the PxxP motifs in HSPR2”, the Kd was about 12 µM (one-set of sites model, 20 μM Tau in cell, 0.6 mM or 1 mM SH3 in syringe, listed as Tau 151–372 Δ215–219, read-out: Kd); 13 µM (one-set of sites model, 20 μM Tau in cell, 0.6 mM or 1 mM SH3 in syringe, listed as Δ215–219, read-out: Kd); 12.7 ± 4.4 µM under setting [1].
On to “Tau 151–372: recombinant Tau fragment 151-372, his-tag cleaved, containing all three HSPRs”, for which the Kd reads like this: (two-sets of sites model, site I, 20 μM Tau in cell, 0.6 mM or 1 mM SH3 in syringe, read-out: KdI) 2.5 ± 1.1 µM; (two-sets of sites model, site II, 20 μM Tau in cell, 0.6 mM or 1 mM SH3 in syringe, listed as Tau151‐372, read-out: KdII) 38 µM; (two-sets of sites model, site II, 20 μM Tau in cell, 0.6 mM or 1 mM SH3 in syringe, read-out: KdII) 37.6 ± 22.7 µM.

The values are drawn from paper PMC12232886, “Multiple and Alternative Sites Make Tau Protein an Adaptable Sticky Surface for the SH3 Domain of Fyn Kinase” (Angewandte Chemie (International Ed. in English), 2025).
